Here are results for 1 substance from publication PMC2695398.

This assay deals with Soluble HLA-DR15 (DRA, DRB1*1501) (human). The experiment in a line: fluorescence polarisation. (In fluorescence polarisation assays a small probe gives low polarisation when free and higher when bound to something large.)

With “Alexa488 labeled derivative of the human myelin basic protein (MBP) 85-99 peptide”, the fold acceleration of peptide binding by DM at pH 4.7 was 15 fold, the fold acceleration of peptide binding by DM at pH 5.6 was determined as 8 fold, the fold acceleration of peptide binding by J10-1 at pH 4.7 turned out to be 15.6 fold and the fold acceleration of peptide binding by J10-1 at pH 5.6 was found to be 28 fold. The substance further displayed a fold acceleration of peptide binding by J10-1 at pH 7.1 of 12.6 fold, a fold acceleration of peptide exchange by 10 uM J10-1 of 15.9 fold, a fold acceleration of peptide exchange by 30 uM J10-1 of 66.4 fold and a fold faster rate of binding with DR15/CLIP than with DR15/pMBP as input complex greater than 10 fold. The half-life of the complex (t1/2) with 100 uM J10 worked out at 4.48 h; the half-life of the complex (t1/2) with 100 uM J10-1 turned out to be 1.93 h; the half-life of the complex (t1/2), no small molecule stood at 35 h.
